Laboratory results from article PMC2768864 (The Journal of Experimental Medicine, 2009).

B1: Ixodes ricinus contact phase inhibitor (Ir-CPI) (natural protein)
chain: ANHKGRGRPAKCKLPPDDGPCRARIPSYYFDRKTKTCKEFMYGGCEGNENNFENITTCQEECRAKKV
B2: plasma kallikrein (enzyme)
heavy: GCLTQLYENAFFRGGDVASMYTPNAQYCQMRCTFHPRCLLFSFLPASSINDMEKRFGCFLKDSVTGTLPKVHRTGAVSGHSLKQCGHQISACHRDIYKGVDMRGVNFNVSKVSSVEECQKRCTSNIRCQFFSYATQTFHKAEYRNNCLLKYSPGGTPTAIKVLSNVESGFSLKPCALSEIGCHMNIFQHLAFSDVDVARVLTPDAFVCRTICTYHPNCLFFTFYTNVWKIESQRNVCLLKTSESGTPSSSTPQENTISGYSLLTCKRTLPEPCHSKIYPGVDFGGEELNVTFVKGVNVCQETCTKMIRCQFFTYSLLPEDCKEEKCKCFLRLSMDGSPTRIAYGTQGSSGYSLRLCNTGDNSVCTTKTSTR
light: not shown
B3: activated factor XII (FXIIa) (enzyme, human)
heavy: IPPWEAPKEHKYKAEEHTVVLTVTGEPCHFPFQYHRQLYHKCTHKGRPGPQPWCATTPNFDQDQRWGYCLEPKKVKDHCSKHSPCQKGGTCVNMPSGPHCLCPQHLTGNHCQKEKCFEPQLLRFFHKNEIWYRTEQAAVARCQCKGPDAHCQRLASQACRTNPCLHGGRCLEVEGHRLCHCPVGYTGAFCDVDTKASCYDGRGLSYRGLARTTLSGAPCQPWASEATYRNVTAEQARNWGLGGHAFCRNPDNDIRPWCFVLNRDRLSWEYCDLAQCQTPTQAAPPTPVSPRLHVPLMPAQPAPPKPQPTTRTPPQSQTPGALPAKREQPPSLTRNGPLSCGQRLRKSLSSMTR
light: VVGGLVALRGAHPYIAALYWGHSFCAGSLIAPCWVLTAAHCLQDRPAPEDLTVVLGQERRNHSCEPCQTLAVRSYRLHEAFSPVSYQHDLALLRLQEDADGSCALLSPYVQPVCLPSGAARPSETTLCQVAGWGHQFEGAEEYASFLQEAQVPFLSLERCSAPDVHGSSILPGMLCAGFLEGGTDACQGDSGGPLVCEDQAAERRLTLQGIISWGSGCGDRNKPGVYTDVAYYLAWIREHTVS

How the values were obtained:
Assay in all cases: SPR
[1] = molecular target: B2
[2] = molecular target: B3
[3] = molecular target: activated factor XI (FXIa) (human, UniProt P03951 19-387; P03951 388-625)
Chain of activated factor XI (FXIa) (P03951 19-387, chain 1 of 2): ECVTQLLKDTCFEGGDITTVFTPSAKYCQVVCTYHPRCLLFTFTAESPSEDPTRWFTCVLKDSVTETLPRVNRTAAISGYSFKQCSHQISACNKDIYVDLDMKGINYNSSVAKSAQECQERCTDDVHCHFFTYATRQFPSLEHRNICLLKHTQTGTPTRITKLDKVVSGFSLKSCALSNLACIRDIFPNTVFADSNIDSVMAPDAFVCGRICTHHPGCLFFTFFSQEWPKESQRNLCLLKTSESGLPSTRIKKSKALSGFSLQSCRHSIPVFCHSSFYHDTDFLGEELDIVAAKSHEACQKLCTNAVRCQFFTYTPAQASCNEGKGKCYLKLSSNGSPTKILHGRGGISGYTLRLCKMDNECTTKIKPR
Chain of activated factor XI (FXIa) (P03951 388-625, chain 2 of 2): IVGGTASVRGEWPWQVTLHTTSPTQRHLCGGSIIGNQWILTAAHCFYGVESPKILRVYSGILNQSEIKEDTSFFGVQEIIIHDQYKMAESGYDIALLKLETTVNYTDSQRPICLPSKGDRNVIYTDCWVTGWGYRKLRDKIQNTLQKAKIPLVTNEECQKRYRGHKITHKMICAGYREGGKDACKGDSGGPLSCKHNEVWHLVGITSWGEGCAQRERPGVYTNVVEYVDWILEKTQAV

[4] = molecular target: B1

Row | Ka [1] [M⁻¹] | Ka [2] [M⁻¹] | Ka [3] [M⁻¹] | ka1 (two-state model, formation of AB) [4] [M⁻¹ s⁻¹] | ka2 (two-state model, forward conformation change) [4] [s⁻¹] | kd1 (two-state model, dissociation of AB) [4] [s⁻¹] | kd2 (two-state model, backward conformation change) [4] [s⁻¹] | Binder
1 | 4.51e+06 | 1.68e+08 | 3.83e+08 |  |  |  |  | B1
2 |  |  |  | 34900 | 0.00834 | 0.0532 | 0.00142 | B2
3 |  |  |  | 219000 | 0.655 | 0.0946 | 0.105 | B3
